“And” between values parts separate entries of the source, which are not always exact repeats. Equal entries are not always repeated.
Tests used:
[1] = biological target: human Bcl-2 protein produced in 32D-BCL-2 cells (human) (UniProt P10415); experiment: immunoprecipitation with anti-Bcl-2 monoclonal antibody 4D7 or control mouse IgG1 from 32D-BCL-2 lysate, in vitro immune complex kinase assay
[2] = biological target: GST protein without BAP-1 sequences (Schistosoma japonicum (Blood fluke), UniProt P08515 = GST); experiment: GST pull-down of 35S-labeled in vitro translated protein, SDS-PAGE and fluorography
Protocol: The cDNA sequences encoding Bcl-X-L, Bcl-X-S, Bcl-2 and Bcl-2β were subcloned into plasmid pSK-II (Stratagens), which contains a T7 RNA polymerass binding site. Cloning into pSK-II allows for the in vitro production of RNA, which can be translated in vitro in the presence of ^35S-methionine using reticulocyte lysates to obtain ^35S-labeled proteins. The ^35S-labeled Bcl-2-related proteins (20 µl of in vitro translation mix) were added to approximately 1 µg of GST-BAP-1 fusion protein immobilized on 10 µl of glutathione-Sepharose or with approximately 1 µg of immobilized GST control protein as described above. Following incubation at 4° C. for 1 hr, the Sepharose particles were washed 3× in a solution containing 147 mM KCl, 20 mM Hepes (pH 7.1), 1 mM MgCl_2, 0.5 mM EGTA, 1 mM PMSF, 0.05 NP-40, 1 mM DTT, 1% non-fat dried milk and 1% BSA. The Sepharose particles were collected by centrifugation and boiled in Laemmli sample buffer to release any bound ^35S-labeled Bcl-2-related proteins. The released proteins were size-fractionated by SDS-PAGE using a 10% gel and visualized by fluorography using X-ray film.

Molecule	Raf-1 kinase activity in Bcl-2 immune complexes relative to control immune complexes (× (fold over control immune complexes)) [1]	binding result [2]
full length endogenous Raf-1 kinase (from UniProt Q99N57) (enzyme)	20 and 50	–
35S-labeled Bcl-2β (in vitro translated) (other, 35S-methionine label) MAHAGRTGYDNREIVMKYIHYKLSQRGYEWDAGDVGAAPPGAAPAPGIFSSQPGHTPHPAASRDPVARTSPLQTPAAPGAAAGPALSPVPPVVHLTLRQAGDDFSRRYRRDFAEMSSQLHLTPFTARGRFATVVEELFRDGVNWGRIVAFFEFGGVMCVESVNREMSPLVDNIALWMTEYLNRHLHTWIQDNGGWVGALGDVSLG	–	no binding
35S-labeled Bcl-X-S (in vitro translated) (other, 35S-methionine label) MSQSNRELVVDFLSYKLSQKGYSWSQFSDVEENRTEAPEGTESEMETPSAINGNPSWHLADSPAVNGATGHSSSLDAREVIPMAAVKQALREAGDEFELRYRRAFSDLTSQLHITPGTAYQSFEQDTFVELYGNNAAAESRKGQERFNRWFLTGMTVAGVVLLGSLFSRK	–	no binding

Reference: patent US5686595, “Bcl-2-associated proteins” (La Jolla Cancer Research Foundation, dated 1997)
